Experimental data: patent publication US20220332804A1 (CSL INNOVATION, published 2022)
Residue numbers refer to the chain shown, from its start.

Tests used:
Test in all cases: SPR; KD relative to WT C2;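 note: biacore SPR at 37 °C, anti-C2 mAbs captured on an anti-human IgG chip, alanine or serine C2 surface mutants tested, KD from 1:1 fit compared with wild-type C2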
human C2 A436S = target: T1, human C2 A436S (human, UniProt P06681 21-752)
T1 sequence: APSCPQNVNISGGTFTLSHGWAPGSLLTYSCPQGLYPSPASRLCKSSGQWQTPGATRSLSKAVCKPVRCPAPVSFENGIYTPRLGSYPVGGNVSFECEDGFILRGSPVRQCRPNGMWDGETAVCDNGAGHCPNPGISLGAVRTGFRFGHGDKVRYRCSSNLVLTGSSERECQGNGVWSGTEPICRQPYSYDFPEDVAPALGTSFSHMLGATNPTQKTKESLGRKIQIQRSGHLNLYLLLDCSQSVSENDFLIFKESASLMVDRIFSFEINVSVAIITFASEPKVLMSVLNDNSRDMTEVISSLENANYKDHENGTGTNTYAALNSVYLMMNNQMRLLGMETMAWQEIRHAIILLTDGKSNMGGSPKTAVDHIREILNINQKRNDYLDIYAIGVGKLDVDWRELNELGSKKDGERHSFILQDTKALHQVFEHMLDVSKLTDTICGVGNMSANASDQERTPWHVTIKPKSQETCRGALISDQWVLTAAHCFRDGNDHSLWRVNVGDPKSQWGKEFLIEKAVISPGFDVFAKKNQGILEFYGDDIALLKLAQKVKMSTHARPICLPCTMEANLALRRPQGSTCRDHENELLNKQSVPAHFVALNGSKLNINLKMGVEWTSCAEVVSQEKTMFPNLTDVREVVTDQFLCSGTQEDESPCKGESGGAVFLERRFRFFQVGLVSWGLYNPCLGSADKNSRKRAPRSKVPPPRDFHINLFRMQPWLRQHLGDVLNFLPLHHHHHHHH

human C2 N471A = target: T2, human C2 N471A (human, UniProt P06681 21-752)
T2 sequence: T1 sequence with S416A, N451A

human C2 R688A = target: T3, human C2 R688A (human, UniProt P06681 21-752)
T3 sequence: T1 sequence with S416A, R668A

human C2 K457A = target: T4, human C2 K457A (human, UniProt P06681 21-752)
T4 sequence: T1 sequence with S416A, K437A

B1: RF16-214 (antibody, V domains shown)
VH: EVQLLESGGGLVQPGGSLRLSCAASGFTFSWYQMMWVRQAPGKGLEWVSRIYPSGGGTAYADSVKGRFTISRDNSKNTLYLQMNSLRAEDTAVYYCARDAGYGDNWGQGTLVTVSS
VL: QSALTQPPSVSVSPGQTASITCSGDKLGEKYASWYQQKAGQSPVMVIYQDRKRPSGIPERFSGSNSGNTATLTISGTQAMDEADYYCQAWDTRAVVFGGGTKLTVLG
Fold diff (human C2 A436S): 1 fold | Fold diff (human C2 N471A): 1 fold | Fold diff (human C2 R688A): 3 fold | Fold diff (human C2 K457A): 1 fold
